Experimental data as given in patent US20230122991A1, “GROWTH FACTOR FORMULATION FOR CONDITION ASSOCIATED WITH OTIC EVENT” (OTONOMY, INC., priority 2020, published 2023).

Legend:
[1] = test system: noise exposed adult rats; experiment: Noise-induced hearing loss/synaptopathy, ABR wave I amplitude (Example A1); format: in vivo, rat; details: sustained release formulation, 0.005% BDNF in Poloxamer 407, single unilateral intratympanic administration 24 hrs after noise; compared to vehicle treatment; FIG. 3A
Experimental: Male rats (Charles River) approximately 10-11 months of age served as subjects (N=6 per group). Prior to any procedures, animals were anesthetized using a combination of xylazine (10 mg/kg) and ketamine (90 mg/kg) for up to one hour via the intraperitoneal route. If needed, an intraoperative booster was administered intraperitoneally representing one-tenth of the original dose.
Noise exposure—Anesthetized animals (4 at a time) were placed in an enclosure and exposed to noise. The characteristics of the acoustic trauma were as follows: a single period of 1 h, sound pressure level of 105 dB SPL with a narrow band pass of 8-16 kHz. […]
Auditory Brainstem Response (ABR) assessment (wave 1)—During the procedure, additional anesthetic (xylazine and ketamine) was administered if needed to maintain the depth of anesthesia sufficient to insure immobilization and relaxation. ABRs were recorded in an electrically and acoustically shielded chamber, one ear at a time. […] Acoustic calibration was performed with TDT software (SigCal) and thresholds were expressed as dB SPL in conditions identical to that of threshold recordings in animals. […] Wave 1 was quantified by averaging the wave 1 amplitude from intensities ranging between 60-80 dB SPL.
Animals were exposed to noise on Day 0. […] ABR threshold and ABR wave I amplitude were measured weekly in live animals for up to 4 weeks. […]

[2] = test system: SGNs; experiment: SGN complexity, dissociated SGNs (Example D); format: cell-based, rat; details: differences upon treatment, FIG. 7D
From the text: SGNs were immunostained, imaged, and batch analyzed with PerkinElmer Harmony 4.6 software. Changes in the complexities of SGNs upon treatment with various agents were examined. […] All of the images in a single well were stitched together and analyzed. SGN somas are shown in the upper right panel and SGN neurites are shown in the lower left panel. As shown in the lower right panel, each neurite tree is assigned to a single cell for analysis. Depending on the stitching, occasionally neurites will not meet the criteria due to gaps that exceed a user-defined threshold.

[3] = test system: adult male rats bilaterally exposed to noise; experiment: Noise-induced cochlear synaptopathy, ABR and wave I amplitude at various BDNF concentrations (Example K); format: in vivo, rat; details: at all three BDNF concentrations (0.005%, 0.05%, 0.5% BDNF in P407), vs P407 vehicle alone
Experimental: (§1) Animals: Male Sprague-Dawley rats (5-6 months of age) were used for efficacy studies and females (2-3 months) were used for pharmacokinetic studies.
(§2) Formulations: Human recombinant BDNF was suspended in the thermoreversible polymer Poloxamer 407 (16%) to reach a range of BDNF concentrations (0.005%, 0.05%, and 0.5% by weight).
(§3) Intratympanic (IT) injection: Formulations were administered under anesthesia as a single IT injection (20 μl) through the tympanic membrane into the middle ear, targeting the round window membrane (RWM).
(§4) Noise-induced cochlear synaptopathy: Rats received a single acoustic trauma (105 dB SPL, 8-16 kHz, 1 h) under anesthesia. 24 hours later (Day 1) animals received a single bilateral IT injection of the treatment regimens. Auditory function (ABR and ABR wave 1 amplitude) was monitored at day 1 and then every 7 days for 28 days, as illustrated in FIG. 16. At termination (Day 28), cochleae were collected and assessed for evidence of cochlear synaptopathy (IHC synaptic puncta counts).
Intratympanic BDNF improves Auditory Brainstem Response (ABR) thresholds and wave I amplitudes in adult rats. The Auditory Brainstem Response (ABR) is an objective test that measures hearing sensitivity and can identify abnormalities in the peripheral auditory system and the auditory pathway up through the brainstem. […]

[4] = test system: rats after acoustic trauma; experiment: Noise-induced cochlear synaptopathy, IHC synaptic puncta counts at various BDNF concentrations (Example K); format: in vivo, rat; details: at all three BDNF concentrations (0.005%, 0.05%, 0.5% BDNF in P407); Day 28; FIG. 19
Experimental: as §1, §2, §3, §4
Immunohistochemistry: Dissected cochleae were immunostained with antibodies against presynaptic (CtBP2) and postsynaptic (GluR2) proteins and MyosinVIIa to label hair cells. Cochleae were then frequency mapped and high-magnification images were obtained with a Zeiss LSM-880 confocal microscope and imaged at an interval of 0.35 μm.

B1: brain-derived neurotrophic factor (protein, UniProt P23560 129-247, looked up)
Neurotrophic factor BDNF: HSDPARRGELSVCDSISEWVTAADKKTAVDMSGGTVTVLEKVPVSKGQLKQYFYETKCNPMGYTKEGCRGIDKRHWNSQCRTTQSYVRALTMDSKKRIGWRFIRIDTSCVCTLTIKRGR
modifications: Neurotrophic factor BDNF in 16% poloxamer 407 gel
notes: Human recombinant BDNF
hearing function (wave I amplitude) [1]: improved
total neurite length, total number of extremities, segments, and nodes per cell [2]: not statistically significant
ABR threshold shift ([3]; intratympanic injection 24 hours after noise exposure, FIG. 17): more rapid recovery of initial threshold shifts and overall reduced levels of hearing loss
wave I amplitudes ([3]; FIG. 18): significant improvements
synaptic puncta (co-expression of CtBp2 and GluR2) per inner hair cell [4]: increased
